This assay addresses T1, recombinant human PSGL-1 Fc fusion protein (human).
T1 sequence (Q14242 whole entry, looked up): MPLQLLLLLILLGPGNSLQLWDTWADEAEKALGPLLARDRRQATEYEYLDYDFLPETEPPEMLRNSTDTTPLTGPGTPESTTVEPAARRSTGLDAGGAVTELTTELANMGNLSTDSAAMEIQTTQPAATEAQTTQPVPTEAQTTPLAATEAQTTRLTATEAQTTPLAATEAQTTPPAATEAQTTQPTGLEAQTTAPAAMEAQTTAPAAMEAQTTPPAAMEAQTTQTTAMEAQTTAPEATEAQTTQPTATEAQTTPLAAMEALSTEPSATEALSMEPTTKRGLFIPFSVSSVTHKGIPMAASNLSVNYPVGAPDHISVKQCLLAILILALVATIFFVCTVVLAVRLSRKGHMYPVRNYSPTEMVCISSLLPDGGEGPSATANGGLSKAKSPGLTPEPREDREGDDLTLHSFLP
The experiment in a line: ELISA; EC50 of biotinylated P- and L-selectin binding to PSGL-1; the titration itself is not described, the values are given in the competition protocol. For orientation: ELISA stands for enzyme-linked immunosorbent assay.

One may read the EC50 as the midpoint of the concentration-response curve. Regarding “biotinylated P-selectin (from UniProt P16109 42-771) (natural protein)”, the EC50 was 1 nM.

B1: biotinylated L-selectin (natural protein)
chain: WTYHYSEKPMNWQRARRFCRDNYTDLVAIQNKAEIEYLEKTLPFSRSYYWIGIRKIGGIWTWVGTNKSLTEEAENWGDGEPNNKKNKEDCVEIYIKRNKDAGKWNDDACHKLKAALCYTASCQPWSCSGHGECVEIINNYTCNCDVGYYGPQCQFVIQCEPLEAPELGTMDCTHPLGNFSFSSQCAFSCSEGTNLTGIEETTCGPFGNWSSPEPTCQVIQCEPLSAPDLGIMNCSHPLASFSFTSACTFICSEGTELIGKKKTICESSGIWSNPSPICQKLDKSFSMIKEGDYN
modifications: biotinylated
Turning to B1, the EC50 amounted to 40 nM.

Values taken from article PMC11352552.
